Source: patent publication US20240116985A1, “STAPLED PEPTIDES AND METHODS THEREOF” (priority 2020, published 2024)
One block for each binder: values may come before it. Starred links: 1 amine or outer side, 2 acyl side, 3 side chain; linkers in the order of their positions; H or OH if unused. Positions of bridges follow the written chain, without caps; N, C: chain ends. Non-standard residues stand in square brackets, D forms with d. Primed or numbered codes have the meaning given here. PyrS2″ = (S)-3-amino-1-((pent-4-en-1-yloxy)carbonyl)pyrrolidine-3-carboxylic acid (stapling residue), C=CCCCOC(=O)N1CC[C@@](N[*:1])(C(=O)[*:2])C1; B5(16) = 2-amino-2-(pent-4-en-1-yl)hept-6-enoic acid = 2,2-bis(4-pentenyl)glycine (stitching residue), C=CCCCC(CCCC=C)(N[*:1])C(=O)[*:2]; B5(4) = 2,2-bis(4-pentenyl)glycine = 2-amino-2-(pent-4-en-1-yl)hept-6-enoic acid (stitching residue), C=CCCCC(CCCC=C)(N[*:1])C(=O)[*:2]; B5(5) = 2,2-bis(4-pentenyl)glycine, 2-amino-2-(pent-4-en-1-yl)hept-6-enoic acid (stitching residue), C=CCCCC(CCCC=C)(N[*:1])C(=O)[*:2]; TfeGA = (S)-2-amino-3-((carboxymethyl)(2,2,2-trifluoroethyl)amino)propanoic acid, O=C([C@H](CN(CC(=O)[*:3])CC(F)(F)F)N[*:1])[*:2]; PyrS2 = (S)-3-amino-1-((pent-4-en-1-yloxy)carbonyl)pyrrolidine-3-carboxylic acid, C=CCCCOC(=O)N1CC[C@@](N[*:1])(C(=O)[*:2])C1; B5 = 2-amino-2-(pent-4-en-1-yl)hept-6-enoic acid, C=CCCCC(CCCC=C)(N[*:1])C(=O)[*:2]; Me2Asn = listed as N4-methyl-L-asparagine, CNC(=O)C[C@H](N[*:1])C(=O)[*:2]; Phe(3-COOH) = N[C@@H](Cc1cccc(C(=O)O)c1)C(=O)O; Phe(2-CF3) = N[C@@H](Cc1ccccc1C(F)(F)F)C(=O)O; Phe(2-Cl) = N[C@@H](Cc1ccccc1Cl)C(=O)O; Bta = N[C@@H](Cc1csc2ccccc12)C(=O)O; Lys(iPr) = CC(C)NCCCC[C@H](N)C(=O)O; αAllylPro = C=CC[C@@]1(C(=O)O)CCCN1; tBuAla = CC(C)(C)C[C@H](N)C(=O)O; 3Thi = N[C@@H](Cc1ccsc1)C(=O)O; Cha = N[C@@H](CC1CCCCC1)C(=O)O; Cit = NC(=O)NCCC[C@H](N)C(=O)O; S8 = C=CCCCCCC[C@](C)(N)C(=O)O; Leu(ol) = CC(C)C[C@H](N)CO; hSer = N[C@@H](CCO)C(=O)O; 34ClF = not defined here; Nle = CCCC[C@H](N)C(=O)O; Aib = CC(C)(N)C(=O)O

How the values were obtained:
[1] = target: full-length beta-Catenin (Uniprot ID P35222) (Homo sapiens (Human)) (UniProt P35222); experiment: fluorescence polarization competition; 10 nM full-length beta-catenin, 10 nM 5FAM-TCF4(10-53) probe
[2] = target: full-length beta-Catenin (Uniprot ID P35222) (Homo sapiens (Human)) (UniProt P35222); experiment: FP competition: displacement of 5FAM-TCF4(10-53) from full-length beta-catenin
Target sequence in this assay (P35222 whole entry): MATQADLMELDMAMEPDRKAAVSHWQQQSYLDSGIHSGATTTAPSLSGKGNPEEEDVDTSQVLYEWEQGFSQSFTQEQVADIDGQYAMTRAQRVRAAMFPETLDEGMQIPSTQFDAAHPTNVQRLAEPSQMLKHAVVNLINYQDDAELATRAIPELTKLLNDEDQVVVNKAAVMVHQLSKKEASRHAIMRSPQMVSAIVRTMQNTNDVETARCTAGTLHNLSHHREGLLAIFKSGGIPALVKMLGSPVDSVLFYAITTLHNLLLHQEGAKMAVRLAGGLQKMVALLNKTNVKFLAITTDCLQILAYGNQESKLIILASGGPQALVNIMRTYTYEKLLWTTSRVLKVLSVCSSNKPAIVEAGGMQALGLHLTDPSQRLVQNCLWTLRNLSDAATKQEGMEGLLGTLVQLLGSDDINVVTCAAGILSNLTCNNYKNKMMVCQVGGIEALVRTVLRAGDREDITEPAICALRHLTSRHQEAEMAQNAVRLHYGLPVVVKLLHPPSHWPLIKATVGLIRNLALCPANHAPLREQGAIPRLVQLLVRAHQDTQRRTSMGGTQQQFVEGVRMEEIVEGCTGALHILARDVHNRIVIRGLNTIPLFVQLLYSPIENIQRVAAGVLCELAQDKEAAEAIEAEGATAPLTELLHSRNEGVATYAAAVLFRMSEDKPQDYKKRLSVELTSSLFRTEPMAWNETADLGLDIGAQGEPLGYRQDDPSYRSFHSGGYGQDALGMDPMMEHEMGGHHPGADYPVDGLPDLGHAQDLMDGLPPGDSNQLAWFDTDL

[3] = target: full-length beta-Catenin (Uniprot ID P35222) (Homo sapiens (Human)) (UniProt P35222); experiment: fluorescence polarization competition; full-length beta-catenin, 5FAM-TCF4(10-53) probe as competitor
Target sequence in this assay (P35222 2-781 limits assumed): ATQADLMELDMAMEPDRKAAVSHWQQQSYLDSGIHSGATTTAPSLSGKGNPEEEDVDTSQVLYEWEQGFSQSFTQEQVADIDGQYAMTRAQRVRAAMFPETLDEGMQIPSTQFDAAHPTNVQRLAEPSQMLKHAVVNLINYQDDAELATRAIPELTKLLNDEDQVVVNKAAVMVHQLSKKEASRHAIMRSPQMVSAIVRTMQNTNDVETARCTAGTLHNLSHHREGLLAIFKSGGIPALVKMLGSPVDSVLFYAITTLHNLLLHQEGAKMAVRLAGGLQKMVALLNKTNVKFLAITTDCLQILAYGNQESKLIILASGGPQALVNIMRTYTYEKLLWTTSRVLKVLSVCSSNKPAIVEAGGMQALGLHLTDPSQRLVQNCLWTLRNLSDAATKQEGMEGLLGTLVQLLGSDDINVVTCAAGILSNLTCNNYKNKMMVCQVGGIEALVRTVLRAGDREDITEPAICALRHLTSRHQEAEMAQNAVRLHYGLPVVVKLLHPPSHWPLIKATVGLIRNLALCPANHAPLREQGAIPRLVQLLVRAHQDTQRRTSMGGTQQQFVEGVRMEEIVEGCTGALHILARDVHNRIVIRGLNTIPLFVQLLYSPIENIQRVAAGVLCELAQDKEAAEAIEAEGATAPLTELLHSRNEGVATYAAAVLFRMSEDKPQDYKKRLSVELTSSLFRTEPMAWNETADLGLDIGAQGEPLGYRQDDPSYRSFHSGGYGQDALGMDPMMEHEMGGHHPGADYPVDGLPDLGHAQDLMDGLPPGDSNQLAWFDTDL

[4] = target: full-length beta-Catenin (Uniprot ID P35222) (Homo sapiens (Human)) (UniProt P35222); experiment: fluorescence polarization competition; full-length beta-catenin with 5FAM-TCF4(10-53) probe as competitor
Target sequence in this assay (P35222 whole entry): as the sequence (P35222 whole entry) above

[5] = target: full-length beta-Catenin (Uniprot ID P35222) (Homo sapiens (Human)) (UniProt P35222); experiment: fluorescence polarization competition; peptide titrated against 10 nM full-length beta-catenin + 10 nM 5FAM-TCF4(10-53) probe
Target sequence in this assay (P35222 whole entry): as above

Binder: Ac-[αAllylPro]D[tBuAla][B5(4)]D[Phe(3-COOH)][Me2Asn]AFL[PyrS2″][3Thi][Bta][tBuAla]-NH2 (staple 1-4, 4-11) [I-2196]
IC50 [1]: 0.041 µM

Binder: Ac-[αAllylPro][hSer][tBuAla][B5(5)]DDAAFN[PyrS2″][3Thi][Bta]Q-NH2 (staple 1-4, 4-11) [I-1228]
EC50 [2]: 0.1 µM
IC50 [3]: 0.1 µM

Binder: Ac-[αAllylPro]DL[B5(4)]DEAAF[Cit][S8]F[Bta]Q-NH2 (staple 1-4, 4-11) [I-621]
IC50 [4]: 0.058 µM
EC50 [5]: 0.058 µM

Binder: Ac-[αAllylPro]L[tBuAla][B5(5)]DDAAFN[PyrS2″][3Thi][Bta]Q-NH2 (staple 1-4, 4-11) [I-1226]
EC50 [2]: 0.559 µM
IC50 [3]: 0.559 µM

Binder: Ac-[αAllylPro]S[tBuAla][B5(5)]DDAAFL[PyrS2″][3Thi][Bta]Q-NH2 (staple 1-4, 4-11) [I-1223]
EC50 [2]: 0.55 µM

B1: I-2182 (peptide)
peptide: Ac-[αAllylPro]D[tBuAla][B5(4)]DDAAFN[PyrS2″][3Thi][34ClF]Q-NH2
modifications: staple 1-4, 4-11; reading uncertain; also: printed as Ac-PL3-Asp-Npg-B5-Asp-Asp-Ala-Ala-Phe-Asn-PyrS2-3Thi-34C1F-Gln-NH2
IC50 [1]: 0.005 µM

Binder: Ac-[αAllylPro]DL[B5(4)]DEAAFN[S8]F[Bta]-NH2 (staple 1-4, 4-11; also: later-eluting staple isomer) [I-625]
IC50 [4]: 0.119 µM
EC50 [5]: 0.119 µM

Binder: Ac-[αAllylPro]N[tBuAla][B5(5)]DQ[Lys(iPr)]AF[Cha][PyrS2]F[Bta]Q-NH2 (staple 1-4, 4-11) [I-1650]
IC50 [1]: 1.68 µM

Binder: Ac-[αAllylPro]D[tBuAla][B5(4)]D[Phe(3-COOH)][Aib]AFL[PyrS2″][3Thi][Bta][tBuAla]-NH2 (staple 1-4, 4-11) [I-2194]
IC50 [1]: 0.091 µM

Binder: Ac-[αAllylPro]N[tBuAla][B5(4)]DQ[Lys(iPr)]AFL[PyrS2]F[Bta][Lys(iPr)]-NH2 (staple 1-4, 4-11) [I-1645]
IC50 [1]: 0.94 µM

Binder: Ac-[αAllylPro]DL[B5(4)]DEAAFN[S8]F[Bta]-NH2 (staple 1-4, 4-11; also: earlier-eluting staple isomer) [I-624]
IC50 [4]: 0.273 µM
EC50 [5]: 0.273 µM

Binder: Ac-[αAllylPro]N[tBuAla][B5(4)]DQ[Lys(iPr)]A[Cha]L[PyrS2]F[Bta]Q-NH2 (staple 1-4, 4-11) [I-1649]
IC50 [1]: 2.48 µM

Binder: Ac-[αAllylPro][hSer][tBuAla][B5(5)]DDAAFL[PyrS2″][3Thi][Bta]Q-NH2 (staple 1-4, 4-11) [I-1229]
EC50 [2]: 0.134 µM
IC50 [3]: 0.134 µM

Binder: Ac-[αAllylPro]D[Cha][B5(4)]DEAAFN[S8]F[Bta]Q-NH2 (staple 1-4, 4-11; also: earlier-eluting staple isomer) [I-619]
IC50 [4]: 0.044 µM
EC50 [5]: 0.044 µM

Binder: Ac-[αAllylPro]Q[tBuAla][B5(5)]DDAAFL[PyrS2″][3Thi][Bta]Q-NH2 (staple 1-4, 4-11) [I-1225]
EC50 [2]: 0.305 µM

Binder: Ac-[αAllylPro]Q[tBuAla][B5(5)]DDAAFN[PyrS2″][3Thi][Bta]Q-NH2 (staple 1-4, 4-11) [I-1224]
EC50 [2]: 0.389 µM

Binder: Ac-[αAllylPro]D[tBuAla][B5(4)]D[Phe(3-COOH)]SAFL[PyrS2″][3Thi][Bta][tBuAla]-NH2 (staple 1-4, 4-11) [I-2195]
IC50 [1]: 0.062 µM

Binder: Ac-[αAllylPro]N[tBuAla][B5(5)]DQ[Lys(iPr)]AFL[PyrS2″][Cha][Bta]Q-NH2 (staple 1-4, 4-11) [I-1651]
IC50 [1]: 3.97 µM

Binder: Ac-[αAllylPro]DL[B5]DEAAF[Cit][S8]F[Bta]H-NH2 (staple 1-4, 4-11) [I-616]
IC50 [4]: 0.108 µM
EC50 [5]: 0.108 µM

Binder: Ac-[αAllylPro]N[tBuAla][B5(5)]DQ[Lys(iPr)]AFL[PyrS2″]F[Bta][Cha]-NH2 (staple 1-4, 4-11) [I-1652]
IC50 [1]: 10 µM

Binder: Ac-[αAllylPro]N[tBuAla][B5(4)]DQ[Lys(iPr)]AFL[PyrS2]F[Bta]K-NH2 (staple 1-4, 4-11) [I-1643]
IC50 [1]: 0.822 µM

Next, values leading:

IC50 [1]: 10 µM
Binder: Ac-[αAllylPro]N[tBuAla][B5(4)]DQ[Lys(iPr)]AFL[PyrS2]F[Bta][tBuAla]-NH2 (staple 1-4, 4-11) [I-1644]

IC50 [4]: 0.05 µM
EC50 [5]: 0.05 µM
Binder: Ac-[αAllylPro]D[Cha][B5]DEAAFN[S8]F[Bta]H-NH2 (staple 1-4, 4-11) [I-615]

EC50 [2]: 0.014 µM
Binder: Ac-[αAllylPro]N[tBuAla][B5(4)]DDAAFL[PyrS2″][3Thi][Bta]Q-NH2 (staple 1-4, 4-11) [I-1221]

IC50 [1]: 0.021 µM
Binder: Ac-[αAllylPro]D[tBuAla][B5(4)]D[Phe(3-COOH)]AAFL[PyrS2″][Phe(2-CF3)][Bta][MorphGln]-NH2 (staple 1-4, 4-11) [I-2541]

IC50 [1]: 0.021 µM
Binder: Ac-[αAllylPro]D[tBuAla][B5(4)]D[Phe(3-COOH)]AAFF[PyrS2″][Phe(2-CF3)][Bta][Me2Gln]-NH2 (staple 1-4, 4-11) [I-2534]

IC50 [1]: 0.164 µM
Binder: Ac-[αAllylPro]D[tBuAla][B5(4)]D[Phe(3-COOH)][Nle]AFL[PyrS2″][3Thi][Bta][tBuAla]-NH2 (staple 1-4, 4-11) [I-2193]

EC50 [2]: 0.216 µM
Binder: Ac-[αAllylPro]D[tBuAla][B5(5)][hSer]DAAFL[PyrS2″][3Thi][Bta]Q-NH2 (staple 1-4, 4-11) [I-1215]

IC50 [1]: 0.083 µM
Binder: Ac-[αAllylPro]D[tBuAla][B5(4)]D[Phe(3-COOH)][Nle]AFL[PyrS2″][3Thi][Bta]V-NH2 (staple 1-4, 4-11) [I-2189]

IC50 [1]: 0.016 µM
Binder: Ac-[αAllylPro]D[tBuAla][B5(4)]D[Phe(3-COOH)][Me2Asn]AFL[PyrS2″][3Thi][Bta]V-NH2 (staple 1-4, 4-11) [I-2191]

IC50 [4]: 0.035 µM
EC50 [5]: 0.035 µM
Binder: Ac-[αAllylPro]D[Cha][B5(16)]DEAAFN[S8]F[Bta]Q-NH2 (staple 1-4, 4-11; also: later-eluting staple isomer composition) [I-620]

IC50 [1]: 2.13 µM
Binder: Ac-[αAllylPro]N[tBuAla][B5(5)]DQ[Lys(iPr)]AF[Lys(iPr)][PyrS2″]F[Bta][Lys(iPr)]-NH2 (staple 1-4, 4-11) [I-1654]

EC50 [2]: 0.082 µM
IC50 [3]: 0.082 µM
Binder: Ac-[αAllylPro]D[tBuAla][B5(4)]D[TfeGA]AAFT[PyrS2″][Phe(2-Cl)][Bta][Leu(ol)] (staple 1-4, 4-11) [I-1243]

IC50 [1]: 0.022 µM
Binder: Ac-[αAllylPro]D[tBuAla][B5(4)]D[Phe(3-COOH)]QAFL[PyrS2″][3Thi][Bta][tBuAla]-NH2 (staple 1-4, 4-11) [I-2192]

IC50 [1]: 0.903 µM
Binder: Ac-[αAllylPro]N[tBuAla][B5(5)]DQ[Lys(iPr)]AF[Lys(iPr)][PyrS2″]F[Bta]Q-NH2 (staple 1-4, 4-11) [I-1653]

EC50 [2]: 0.511 µM
Binder: Ac-[αAllylPro]S[tBuAla][B5(5)]DDAAFN[PyrS2″][3Thi][Bta]Q-NH2 (staple 1-4, 4-11) [I-1222]

IC50 [1]: 0.64 µM
Binder: Ac-[αAllylPro]N[tBuAla][B5(4)]DQ[Lys(iPr)]AFL[PyrS2]F[Bta][hSer]-NH2 (staple 1-4, 4-11) [I-1646]
